Seven molecules from patent US20110201105A1, “LACTATION-ASSOCIATED POLYPEPTIDES” (Dairy Australia Limited, priority 2007, published 2011) can be followed below.

One data set deals with chicks. The experiment in a line: Chick growth assay (in ovo injection, weight at hatching). It counts as in vivo. The following applies: for Chick weight: bovine polypeptides in conditioned media, 1 ml in ovo on day 16 of incubation, weighed on day of hatching, Saline 51.0; for death / overall condition of chick: in ovo injection on day 16 of incubation. The protocol: FIG. 5. Chick growth assay by measuring weight. 10 LAMs (being bovine homologues having homology to specific Tammar ESTs), 3 known bovine cathelicidins, and four bovine cathelicidin variants were tested. Conditioned media containing a LAM polypeptides or bovine cathelicidins or variants thereof was diluted in a total of 1 ml of normal saline. Eggs on day 16 of incubation were injected with 1 ml of the media containing the into the broad end of the egg. Chicks were weighed on day of hatching. The overall condition of the chick was assessed including the possible presence of stumpy legs and/or loss of down feathers.
Conditioned media containing LAM polypeptides or bovine cathelicidins or variants thereof were diluted in a total of 1 ml of normal saline. Eggs on day 16 of incubation were injected in ovo with 1 ml of LAM polypeptides or bovine cathelicidins or variants thereof into the broad end of the egg. Chicks were weighed on day of hatching. Controls included saline only, or saline and 10 mg/ml of a peptide as a random peptide control.
As set out in Table 23, the left column indicates the polypeptide used in the assay while the right column contains chick weight in grams as a measurement of chick growth. Bolded numbers represent a chick(s) larger than the controls and more than 2 standard deviations from the mean. In addition, bolded numbers represent chicks that have been killed. The mean represents the weight of all the chicks tested within this experiment.

Another data set relates to AGS cells. In words: Cell growth using bovine cathelicidin variants in AGS cells (SRB assay). The format is cell-based, human. Also on record: unit not given here. The following applies: 72 hours; for cell growth Replicate 3: -ve control 0.233; for cell growth Replicate 1: -ve control 0.247; for cell growth Replicate 4: -ve control 0.265; for cell growth Replicate 2: -ve control 0.316; for cell growth Mean: -ve control mean 0.265. The method, then: A cellular growth assay was performed using seven bovine cathelicidin (CATHL) variants, namely CATHL1, 4, and 6 which are known in the art (the relevant sequences can be obtained using the following hyperlink: http://www.ncbi.nlm.nih.gov/entrez/query.fcqi?db=unigene&cmd=search&term=cathelicidin) and bovine Cathelicidins 8, 9, 10 and 11 (being LAMs 32.8, 32.9, 32.10 and 32.11, respectively) as identified herein and which are derived from LAM 32. The bovine cathelicidin associated LAMs were derived by sequence comparison to the tammar polynucleotide sequence of LAM 32.
The growth rate of AGS cells was assessed in the presence of the cathelicidins. Equal numbers of human gastric epithelial AGS cells were cultured in either control media or media conditioned with bovine cathelicidins for 72 hours in a 1:10 dilution of serum and antibiotic-free Optimem. Cells were then fixed and a Sulforhodamine B (SRB) colorimetric assay was undertaken as described in Journal of Immunological Methods 208: 151-158, K. T. Papazisis, G. D. Geromichalos, K. A. Dimitriadis, A. H. Kortsaris (1997), ‘Optimization of the sulforhodamine B colorimetric assay’.
Briefly, cells were fixed directly by incubation with 10% trichloroacetic acid for 1 hour at 4° C., washed with water, air-dried overnight and then stained with 0.4% w/v sulforhodamine B, 1% acetic acid solution for 10 minutes at room temperature. Cell were again washed with 1% acetic acid and air-dried, then counted in triplicate.
A general note: The SRB assay estimates cell density from bound dye.

A further data set concerns mouse ES cells. The experiment in a line: Cell growth with cathelicidins in mouse ES cells. The format is cell-based. Set-up: cell growth Rep. 1 / cell growth Rep. 2 / cell growth Rep. 3 / cell growth Mean: unit not given here. The following applies: 24 hours; for cell growth Rep. 1: 1:10 dilution conditioned media, -ve control 0.34; for cell growth Rep. 3: -ve control 0.352; for cell growth Rep. 2: -ve control 0.474; for cell growth Mean: -ve control mean 0.388666667. The protocol: Mouse ES cells were plated at 50 percent confluency and cultured for 24 hours in a 1:10 dilution of serum and antibiotic free Optimem and media conditioned with cathelicidin associated polypeptides. The medium was removed and then washed gently for 2 minutes with Mg^2+- and Ca^2+-free phosphate buffered saline 0.05% Trypsin and 1:5000 Versene to disrupt cell aggregates. Cells were collected by scraping and washed twice by resuspension in complete medium followed by centrifugation. The cells were again resuspended and counted in triplicate using a Luber haemocytometer.
(§1) The cells were counted in triplicate using a Luber haemocytometer. The negative control was media alone (i.e. conditioned media […] insertless vector). The samples were deemed statistically significant using a t-test comparing the control with the sample if the values of cell growth were 2 standard deviations higher than the mean of the negative control.

A further data set has as its system HC11 cells. The experiment in a line: Cell growth with cathelicidins in HC11 cells. It counts as cell-based, mouse. Also on record: cell growth Rep. 1 / cell growth Rep. 2 / cell growth Rep. 3 / cell growth Rep. 4 / cell growth Mean: unit not given here. The following applies: 72 hours; for cell growth Rep. 1: 1:10 dilution conditioned media, -ve control 0.727; for cell growth Rep. 2: -ve control 0.76; for cell growth Rep. 3: -ve control 0.786; for cell growth Rep. 4: -ve control 0.808; for cell growth Mean: -ve control mean 0.77025; for cell growth versus control (significance): P<0.05 t-test. The protocol:
FIG. 2. Cellular growth assay with HC11 cells. Mouse mammary epithelial cells, HC11 cells, were grown in media conditioned with: mock transfection (control), LAM32, LAM32a or LAM32b for 72 hours. Samples were performed in triplicate and the cells from each triplicate counted in triplicate. […] LAM 32 is represented as set forth in SEQ ID NO: 188, and two splice variants thereof, designated LAM32a and 32b as set forth in SEQ ID NO: 215 and 207 respectively.
As shown in FIG. 2 equal numbers of mouse mammary HC11 cells were grown in the presence of either a negative control or tammar wallaby cathelicidin-associated polypeptide, namely LAM 32 (SEQ ID NO: 188), LAM 32a (SEQ ID NO: 215) or LAM 32b (SEQ ID NO: 207) in order to determine the effect of these LAMs on cellular growth.
HC11 cells were initially plated at 50 percent confluency and cultured for 72 hours in a 1:10 dilution of serum and antibiotic free Optimem and media conditioned with cathelicidin associated polypeptides. The medium was removed and then washed gently for 2 minutes with Mg^2+- and Ca^2+-free phosphate buffered saline (PBS), 0.05% Trypsin and 1:5000 Versene to disrupt cell aggregates. Cells were collected by scraping and washed twice by resuspension in complete medium followed by centrifugation. The cells were again resuspended and counted in triplicate using a Luber haemocytometer.
as §1

Turning to “CATHL4: bovine cathelicidin 4, known in the art (ILPWKWPWWPWRR; UniProt P33046 131-143, looked up) [reference compound]”, the Chick weight with chicks turned out to be 49.7 grams. Further, in the data set with AGS cells, the “cell growth Replicate 3” value was 0.409, the “cell growth Replicate 1” value was 0.626, the “cell growth Replicate 4” value was determined as 0.500 and the “cell growth Replicate 2” value is given as 0.465. In addition, the “cell growth Mean” value in the data set with AGS cells is 0.500.

B1: LAM 32b: splice variant of tammar wallaby LAM 32, SEQ ID NO 207 (protein)
chain: MRGLTMQVLLLVLGLLSLMTPLGYAQDQPYQDVLNRFIQEYNTKSESESLFRLSVLNLPSQESNDPTAPQLLKFTIRETVCSKSEHRNPEECDFKKNGVRVSWAGKGF
As to B1, in the data set on mouse ES cells, the “cell growth versus control (significance)” value is reported as “significantly different growth from the control”, the “cell growth Rep. 1” value is listed as 0.676, the “cell growth Rep. 3” value came out at 0.693 and the “cell growth Rep. 2” value was 0.677. The “cell growth Mean” value in the data set with mouse ES cells is 0.682. Further, in the data set with HC11 cells, the “cell growth Rep. 1” value is recorded as 0.89, the “cell growth Rep. 2” value is 0.841, the “cell growth Rep. 3” value came to 0.862 and the “cell growth Rep. 4” value turned out to be 0.832. Besides, in the data set on HC11 cells, the “cell growth Mean” value is listed as 0.8562 and the “cell growth versus control (significance)” value is listed as “significantly more cells”.

B2: LAM 32.11: bovine cathelicidin variant, SEQ ID NO 177 (protein)
chain: METQRASLSLGRWSLWLLLLGLVLPSASAQALSYREAMLRAVDQLNERSSEAHLYRLLGASTRPPSGHELGRGTGDEPFSCPALATLLPLHSGCTSCQEGTFPSRWVPTSSRKAVSRDLGHLPAPGYPCLSISAVGIGTLHTWLRFPGLLGSSRDGGVTGSVR
For the molecule B2, the “chick size versus controls” value with chicks (body weight relative to mean/median of all chicks tested) is recorded as “produced a chick larger than the controls”. The Chick weight in the data set on chicks is on record as 59^ grams. Also, in the data set on AGS cells, the “cell growth Replicate 3” value was 0.563, the “cell growth Replicate 1” value amounted to 0.365, the “cell growth Replicate 4” value amounted to 0.431 and the “cell growth Replicate 2” value came out at 0.366. Moreover, the “cell growth Mean” value with AGS cells was 0.431.

B3: LAM 32.8: bovine cathelicidin variant, SEQ ID NO 171 (protein)
chain: METPRASLSLGRWSLWLLLLGLALPSAQRPGPQLQGGRASCLMESASMKKSSEANLYRLLELDPPPKEDDENPNIPKPVSFRVKETVCPRTSQQSPEQCDFKENGLLKYCVGTVSRWDQVGSNFDITCAAPQSVGGLQAWVGRYYVLGKSMAQLLFQ
For the molecule B3, in the data set with chicks, the Chick weight result is “Killed” and the “death / overall condition of chick” value is on record as “caused death of chicks”. Also, in the data set with AGS cells, the “cell growth Replicate 3” value is recorded as 0.261, the “cell growth Replicate 1” value is listed as 0.441, the “cell growth Replicate 4” value was 0.361 and the “cell growth Replicate 2” value turned out to be 0.382. Also, in the data set on AGS cells, the “cell growth Mean” value is given as 0.361.

B4: LAM 32.9: bovine cathelicidin variant, SEQ ID NO 173 (protein)
chain: METPRASLSLGRCSLWLLLLGLVLPSASAQALSYREAVLRAVDQFNERSSEANLYRLLELDPTPNDVSYEGIWAGRPASWGAGRQIRGRRMSPNPVSPTLTHDQDLDPGTRKPVSFRVKETDCPRTSQQPLEQCDFKENGVSLGAGEKNGRCFPGIGQRAWGRLPIPGRRPGGYGHRGFSLTLNLPFQLVKTVCGTARHQHN
Turning to B4, in the data set with chicks, the Chick weight is given as 46.5 grams; the “death / overall condition of chick” value was “caused stumpy legs and loss of down”. Moreover, in the data set on AGS cells, the “cell growth Replicate 3” value turned out to be 0.220, the “cell growth Replicate 1” value was found to be 0.246, the “cell growth Replicate 4” value turned out to be 0.229 and the “cell growth Replicate 2” value was 0.220. For the same molecule, the “cell growth Mean” value in the data set on AGS cells amounted to 0.229.

B5: LAM 32a: splice variant of tammar wallaby LAM 32, SEQ ID NO 215 (protein)
chain: MRDSTMQVLLLVLGLLSLMTSLACAQDQPYQDVLNRFIQEYNTKSESESLFRLSVLNLPPEESNDPAVPLLKFTIRETVCPKTEHRNADECDFKKNGLVKQCIGTIDLDSPNPSVDISCDRPAKVKRGLWESLKRKATKLGDDIRNTLRNFKIKFPVPRQG
In the case of B5, in the data set on mouse ES cells, the “cell growth versus control (significance)” value is recorded as “significantly different growth from the control”, the “cell growth Rep. 1” value worked out at 0.575, the “cell growth Rep. 3” value worked out at 0.517 and the “cell growth Rep. 2” value turned out to be 0.605. Besides, the “cell growth Mean” value with mouse ES cells is 0.5657. Moreover, in the data set with HC11 cells, the “cell growth Rep. 1” value is 0.958, the “cell growth Rep. 2” value came to 0.977, the “cell growth Rep. 3” value is given as 1.008 and the “cell growth Rep. 4” value worked out at 1.102. In the data set on HC11 cells, the “cell growth Mean” value came out at 1.011 and the “cell growth versus control (significance)” value is “significantly more cells”.

B6: LAM 32.10: bovine cathelicidin variant, SEQ ID NO 175 (protein)
chain: METQRASLSLGRWSLWLLLLGLVLPSASAQALSYREAMLRAVDQLNERSSEAHLYRLLELDPPPDMSWGGDRGRAFLLPALATLLPLHSGCTSCQEGTFPSRWVPTSSRKASQTWVISQHQASCLSISAVGIGTLHTWLKFPGLLGAPGMGGS
For B6, in the data set with chicks, the Chick weight is 53.8 grams. Also, in the data set with AGS cells, the “cell growth Replicate 3” value stood at 0.534, the “cell growth Replicate 1” value was 0.602, the “cell growth Replicate 4” value is recorded as 0.514 and the “cell growth Replicate 2” value came to 0.405. Further, in the data set with AGS cells, the “cell growth Mean” value turned out to be 0.514.
